Assay results taken from the supplement of paper PMC11196671.

How the values were obtained:
[1] = MHET released, HPLC; higher = more MHET released; extreme values may be limits of the assay; details: 24 h
Description: (§1)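 Purified PET hydrolases, 2.5 ug enzyme on 3.5 mg amorphous PET film (aFilm) or crystalline PET powder (cryPow) in 0.5 mL of 50 mM buffer (NaCitrate pH 4.5/5.5, NaPhosphate 6.5/7.5, glycine 8.5/9.5) at 60 or 70 C with shaking for 24 h. Total aromatic product by UV-Vis (260/280 nm, blank-subtracted, normalised per mg enzyme) and individual TPA, MHET, BHET concentrations by UHPLC-DAD at 240 nm; duplicate reactions.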

[2] = terephthalic acid (TPA) released, HPLC; higher = more TPA released; extreme values may be limits of the assay; details: 24 h
Description: as §1

[3] = PET hydrolysis product formed (TPA+MHET+BHET, UV-Vis) per mg enzyme (mmol/mg enzyme); higher = more PET depolymerisation activity; extreme values may be limits of the assay; details: 2 h
Description: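 Purified PET hydrolases (His-SUMO cleaved, E. coli C41(DE3) small-scale expression), 2.5 ug enzyme on 3.5 mg amorphous PET film (aFilm) or crystalline PET powder (cryPow) in 0.5 mL of 50 mM buffer (NaCitrate pH 4.5/5.5, NaPhosphate 6.5/7.5, glycine 8.5/9.5) at 60 or 70 C with shaking for 2 h. Soluble aromatic products (TPA+MHET+BHET) were quantified by UV-Vis at 260/280 nm, blank-subtracted against the no-enzyme control, and normalised per mg enzyme; duplicate reactions.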

[4] = as above; details: 24 h
Description: as §1

QTNPYARGPDPTAASLEASAGPFTVRSFTVSRPSGYGAGTVYYPTNAGGTVGAIAIVPGYTARQSSIKWWGPRLASHGFVVITIDTNSTLDQPESRSSQQMAALEQVASLNGTSSSPIYGKVDTARMGVMGWSMGGGGSLISACNNPSLKAAVVQAPWHSSTNFSCVTVPTLIFACENDSIAPVNSSALPIYDSMSENAKQFLEICGGSHSCANTGNSDQALIGKKGVAWMKRFMDNDTRYSTFACENPNSTRVCDFRTANCS [Z1-PETase]
Details | MHET released, [1] [mM] | PET hydrolysis product formed, [3] | PET hydrolysis product formed, [4] | terephthalic acid, [2] [mM]
PET substrate: aFilm, 60 °C, pH 4.5 | 0 | 0 | 0 | 0
PET substrate: aFilm, 60 °C, pH 5.5 | 0 | 0 | 0.00483 | 0
PET substrate: aFilm, 60 °C, pH 6.5 | 0.321 | 0 | 0.113 | 0.227
PET substrate: aFilm, 60 °C, pH 7.5 | 1.88 | 0.032 | 0.617 | 0.685
PET substrate: aFilm, 60 °C, pH 8.5 | 0.249 | 0.03625 | 0.103 | 0.179
PET substrate: aFilm, 60 °C, pH 9.5 | 1.03 | 0.0733 | 0.517 | 1.22
PET substrate: aFilm, 70 °C, pH 4.5 | 0 | 0 | 0 | 0
PET substrate: aFilm, 70 °C, pH 5.5 | 0 | 0 | 0 | 0
PET substrate: aFilm, 70 °C, pH 6.5 | 0 | 0 | 0 | 0
PET substrate: aFilm, 70 °C, pH 7.5 | 0.0119 | 0 | 0.00464 | 0.0109
PET substrate: aFilm, 70 °C, pH 8.5 | 0.00565 | 0 | 0 | 0.00307
PET substrate: aFilm, 70 °C, pH 9.5 | 0 | 0.00338 | 0.00672 | 0.0495
PET substrate: cryPow, 60 °C, pH 4.5 | 0 | 0 | 0 | 0
PET substrate: cryPow, 60 °C, pH 5.5 | 0.053 | 0 | 0.0183 | 0.0408
PET substrate: cryPow, 60 °C, pH 6.5 | 0.476 | 0.0995 | 0.126 | 0.114
PET substrate: cryPow, 60 °C, pH 7.5 | 0.522 | 0.135 | 0.152 | 0.236
PET substrate: cryPow, 60 °C, pH 8.5 | 0.343 | 0.102 | 0.117 | 0.225
PET substrate: cryPow, 60 °C, pH 9.5 | 0.071 | 0.13 | 0.134 | 0.72
PET substrate: cryPow, 70 °C, pH 4.5 | 0 | 0 | 0 | 0
PET substrate: cryPow, 70 °C, pH 5.5 | 0 | 0 | 0 | 0
PET substrate: cryPow, 70 °C, pH 6.5 | 0.125 | 0.0288 | 0.0331 | 0.0337
PET substrate: cryPow, 70 °C, pH 7.5 | 0.181 | 0.0688 | 0.0691 | 0.17
PET substrate: cryPow, 70 °C, pH 8.5 | 0.123 | 0.0583 | 0.0403 | 0.0464
PET substrate: cryPow, 70 °C, pH 9.5 | 0.0142 | 0.0657 | 0.0592 | 0.367

QTNPYARGPNPTAASLEASAGPFTVRSFTVARPVGYGAGTVYYPTNAGGTVGAIAIVPGYTATQSSINWWGPRLASHGFVVITIDTNSTLDKPESRSSQQMAALRQVASLNGTSSSPIYGKVDTARGGVMGWSMGGGGSLISAANNPSLKAAAVMAPWHSSTNFSSVTVPTLIFACENDRIAPVKEYALPIYDSMSLNAKQFLEICGGSHSCACSGNSNQALIGMKGVAWMKRFMDNDTRYSQFACENPNSTAVCDFRTANCS [HotPETase]
Details | MHET released, [1] [mM] | PET hydrolysis product formed, [3] | PET hydrolysis product formed, [4] | terephthalic acid, [2] [mM]
PET substrate: aFilm, 60 °C, pH 4.5 | 0 | 0 | 0 | 0
PET substrate: aFilm, 60 °C, pH 5.5 | 0.282 | 0 | 0.126 | 0.359
PET substrate: aFilm, 60 °C, pH 6.5 | 0.534 | 0.0257 | 0.172 | 0.226
PET substrate: aFilm, 60 °C, pH 7.5 | 3.07 | 0.0712 | 1.02 | 1.04
PET substrate: aFilm, 60 °C, pH 8.5 | 0.303 | 0.0455 | 0.116 | 0.135
PET substrate: aFilm, 60 °C, pH 9.5 | 1.8 | 0.0961 | 0.744 | 1.35
PET substrate: aFilm, 70 °C, pH 4.5 | 0 | 0 | 0 | 0
PET substrate: aFilm, 70 °C, pH 5.5 | 0 | 0 | 0 | 0.00384
PET substrate: aFilm, 70 °C, pH 6.5 | 0.0858 | 0.00383 | 0.0334 | 0.0729
PET substrate: aFilm, 70 °C, pH 7.5 | 0.198 | 0.0174 | 0.0761 | 0.17
PET substrate: aFilm, 70 °C, pH 8.5 | 0.121 | 0.0193 | 0.049 | 0.0776
PET substrate: aFilm, 70 °C, pH 9.5 | 0.077 | 0.092 | 0.175 | 0.684
PET substrate: cryPow, 60 °C, pH 4.5 | 0 | 0.00338 | 0 | 0.0209
PET substrate: cryPow, 60 °C, pH 5.5 | 0.43 | 0.0775 | 0.118 | 0.1228
PET substrate: cryPow, 60 °C, pH 6.5 | 0.527 | 0.106 | 0.14 | 0.157
PET substrate: cryPow, 60 °C, pH 7.5 | 0.655 | 0.131 | 0.195 | 0.3121
PET substrate: cryPow, 60 °C, pH 8.5 | 0.319 | 0.0736 | 0.104 | 0.211
PET substrate: cryPow, 60 °C, pH 9.5 | 0.174 | 0.0954 | 0.151 | 0.681
PET substrate: cryPow, 70 °C, pH 4.5 | 0 | 0 | 0 | 0
PET substrate: cryPow, 70 °C, pH 5.5 | 0.163 | 0.05472 | 0.0481 | 0.07122
PET substrate: cryPow, 70 °C, pH 6.5 | 0.386 | 0.0748 | 0.103 | 0.118
PET substrate: cryPow, 70 °C, pH 7.5 | 0.249 | 0.109 | 0.094 | 0.262
PET substrate: cryPow, 70 °C, pH 8.5 | 0.268 | 0.0678 | 0.0775 | 0.113
PET substrate: cryPow, 70 °C, pH 9.5 | 0.0221 | 0.0796 | 0.0809 | 0.489
